Literature values, collected in paper PMC9775385.
pKd: −log10 of the molar value.

Biological target: Nter-BsRNaseY N-terminal domain (Bacillus subtilis) (UniProt O31774)

pKd: 5.89
Substance: Nter-BsRNaseY N-terminal domain (from UniProt O31774)
